Measurements reported in PMC7162537.

Biological target: BRCA1 (UniProt P38398)
Experiment: anti-GFP co-IP from nuclear extract, blot
Conditions: reference: wild type GFP-CtIP; sites S327

Substance: CtIP (from UniProt Q99708) S327A
- binding against the reference: lost
